{"source": "the array DNA melting data of Ke et al."}
{"experiment": "melting temperature; melt of duplexes", "conditions": "sodium 0.0675 M; strand 1 µM", "units": {"Tm": "°C"}}
{"substance": "CGACGTGCACTATGTGCTG+CAGCACATGCGGCACGTCG ((((((((...((((((((+))))))))...))))))))", "Tm": 43.3}
{"substance": "CGACGTGCACTATGTGCTG+CAGCACATGCTGCACGTCG (((((((((..((((((((+))))))))..)))))))))", "Tm": 45.5}
{"substance": "CGACGTGCACTATGTGCTG+CAGCACATGTGGCACGTCG ((((((((...((((((((+))))))))...))))))))", "Tm": 48}
{"substance": "CGACGTGCACTATGTGCTG+CAGCACATTACGCACGTCG ((((((((...((((((((+))))))))...))))))))", "Tm": 43.6}
{"substance": "CGACGTGCACTATGTGCTG+CAGCACATTAGGCACGTCG ((((((((...((((((((+))))))))...))))))))", "Tm": 46.4}
{"substance": "CGACGTGCACTATGTGCTG+CAGCACATTATGCACGTCG (((((((((..((((((((+))))))))..)))))))))", "Tm": 46.2}
{"substance": "CGACGTGCACTATGTGCTG+CAGCACATTCGGCACGTCG ((((((((...((((((((+))))))))...))))))))", "Tm": 43.7}
{"substance": "CGACGTGCACTATGTGCTG+CAGCACATTGCGCACGTCG ((((((((.(.((((((((+)))))))).).))))))))", "Tm": 48.8}
{"substance": "CGACGTGCACTATGTGCTG+CAGCACATTTCGCACGTCG ((((((((...((((((((+))))))))...))))))))", "Tm": 43.1}
{"substance": "CGACGTGCAGAATGTGCTG+CAGCACATAAAGCACGTCG ((((((((...((((((((+))))))))...))))))))", "Tm": 50.5}
{"substance": "CGACGTGCAGAATGTGCTG+CAGCACATATAGCACGTCG ((((((((...((((((((+))))))))...))))))))", "Tm": 50.4}
{"substance": "CGACGTGCAGAATGTGCTG+CAGCACATATCGCACGTCG ((((((((...((((((((+))))))))...))))))))", "Tm": 50.9}
{"substance": "CGACGTGCAGAATGTGCTG+CAGCACATCAAGCACGTCG ((((((((...((((((((+))))))))...))))))))", "Tm": 50.6}
{"substance": "CGACGTGCAGAATGTGCTG+CAGCACATCAGGCACGTCG ((((((((...((((((((+))))))))...))))))))", "Tm": 51.1}
{"substance": "CGACGTGCAGAATGTGCTG+CAGCACATCATGCACGTCG (((((((((..((((((((+))))))))..)))))))))", "Tm": 53}
{"substance": "CGACGTGCAGAATGTGCTG+CAGCACATCCGGCACGTCG ((((((((.(.((((((((+)))))))).).))))))))", "Tm": 52.7}
{"substance": "CGACGTGCAGAATGTGCTG+CAGCACATCCTGCACGTCG ((((((((((.((((((((+)))))))).))))))))))", "Tm": 57.4}
{"substance": "CGACGTGCAGAATGTGCTG+CAGCACATCGTGCACGTCG (((((((((..((((((((+))))))))..)))))))))", "Tm": 49}
{"substance": "CGACGTGCAGAATGTGCTG+CAGCACATCTCGCACGTCG ((((((((...((((((((+))))))))...))))))))", "Tm": 51.6}
{"substance": "CGACGTGCAGAATGTGCTG+CAGCACATCTTGCACGTCG (((((((((..((((((((+))))))))..)))))))))", "Tm": 52.3}
{"substance": "CGACGTGCAGAATGTGCTG+CAGCACATGGCGCACGTCG ((((((((...((((((((+))))))))...))))))))", "Tm": 55.9}
{"substance": "CGACGTGCAGAATGTGCTG+CAGCACATGTAGCACGTCG ((((((((...((((((((+))))))))...))))))))", "Tm": 53.4}
{"substance": "CGACGTGCAGAATGTGCTG+CAGCACATGTGGCACGTCG ((((((((...((((((((+))))))))...))))))))", "Tm": 51.7}
{"substance": "CGACGTGCAGAATGTGCTG+CAGCACATTAAGCACGTCG ((((((((..(((((((((+)))))))))..))))))))", "Tm": 53.3}
{"substance": "CGACGTGCAGAATGTGCTG+CAGCACATTACGCACGTCG ((((((((..(((((((((+)))))))))..))))))))", "Tm": 52.7}
{"substance": "CGACGTGCAGAATGTGCTG+CAGCACATTCAGCACGTCG ((((((((.((((((((((+)))))))))).))))))))", "Tm": 57.9}
{"substance": "CGACGTGCAGAATGTGCTG+CAGCACATTCTGCACGTCG (((((((((((((((((((+)))))))))))))))))))", "Tm": 64.2}
{"substance": "CGACGTGCAGAATGTGCTG+CAGCACATTGGGCACGTCG ((((((((..(((((((((+)))))))))..))))))))", "Tm": 53.8}
{"substance": "CGACGTGCAGAATGTGCTG+CAGCACATTTAGCACGTCG ((((((((..(((((((((+)))))))))..))))))))", "Tm": 53.3}
{"substance": "CGACGTGCAGAATGTGCTG+CAGCACATTTCGCACGTCG ((((((((..(((((((((+)))))))))..))))))))", "Tm": 53.5}
{"substance": "CGACGTGCAGAATGTGCTG+CAGCACATTTGGCACGTCG ((((((((..(((((((((+)))))))))..))))))))", "Tm": 54.3}
{"substance": "CGACGTGCAGAATGTGCTG+CAGCACATTTTGCACGTCG (((((((((.(((((((((+))))))))).)))))))))", "Tm": 57}
{"substance": "CGACGTGCAGCATGTGCTG+CAGCACATAACGCACGTCG ((((((((...((((((((+))))))))...))))))))", "Tm": 47.6}
{"substance": "CGACGTGCAGCATGTGCTG+CAGCACATAAGGCACGTCG ((((((((...((((((((+))))))))...))))))))", "Tm": 47.6}
{"substance": "CGACGTGCAGCATGTGCTG+CAGCACATACCGCACGTCG ((((((((.(.((((((((+)))))))).).))))))))", "Tm": 47.3}
{"substance": "CGACGTGCAGCATGTGCTG+CAGCACATACTGCACGTCG ((((((((((.((((((((+)))))))).))))))))))", "Tm": 55.7}
{"substance": "CGACGTGCAGCATGTGCTG+CAGCACATAGGGCACGTCG ((((((((...((((((((+))))))))...))))))))", "Tm": 46.4}
{"substance": "CGACGTGCAGCATGTGCTG+CAGCACATAGTGCACGTCG (((((((((..((((((((+))))))))..)))))))))", "Tm": 44.4}
{"substance": "CGACGTGCAGCATGTGCTG+CAGCACATATAGCACGTCG ((((((((...((((((((+))))))))...))))))))", "Tm": 46.3}
{"substance": "CGACGTGCAGCATGTGCTG+CAGCACATATCGCACGTCG ((((((((...((((((((+))))))))...))))))))", "Tm": 46.6}
{"substance": "CGACGTGCAGCATGTGCTG+CAGCACATATTGCACGTCG (((((((((..((((((((+))))))))..)))))))))", "Tm": 49.1}
{"substance": "CGACGTGCAGCATGTGCTG+CAGCACATCACGCACGTCG ((((((((...((((((((+))))))))...))))))))", "Tm": 46.7}
{"substance": "CGACGTGCAGCATGTGCTG+CAGCACATCAGGCACGTCG ((((((((...((((((((+))))))))...))))))))", "Tm": 47.3}
{"substance": "CGACGTGCAGCATGTGCTG+CAGCACATCCCGCACGTCG ((((((((.(.((((((((+)))))))).).))))))))", "Tm": 46.3}
{"substance": "CGACGTGCAGCATGTGCTG+CAGCACATCCTGCACGTCG ((((((((((.((((((((+)))))))).))))))))))", "Tm": 53.9}
{"substance": "CGACGTGCAGCATGTGCTG+CAGCACATCGTGCACGTCG (((((((((..((((((((+))))))))..)))))))))", "Tm": 44.1}
{"substance": "CGACGTGCAGCATGTGCTG+CAGCACATCTGGCACGTCG ((((((((...((((((((+))))))))...))))))))", "Tm": 49.5}
{"substance": "CGACGTGCAGCATGTGCTG+CAGCACATGACGCACGTCG ((((((((..(((((((((+)))))))))..))))))))", "Tm": 52}
{"substance": "CGACGTGCAGCATGTGCTG+CAGCACATGATGCACGTCG (((((((((.(((((((((+))))))))).)))))))))", "Tm": 61.3}
{"substance": "CGACGTGCAGCATGTGCTG+CAGCACATGCGGCACGTCG ((((((((.((((((((((+)))))))))).))))))))", "Tm": 61.6}
{"substance": "CGACGTGCAGCATGTGCTG+CAGCACATGCTGCACGTCG (((((((((((((((((((+)))))))))))))))))))", "Tm": 66.1}
{"substance": "CGACGTGCAGCATGTGCTG+CAGCACATGTAGCACGTCG ((((((((..(((((((((+)))))))))..))))))))", "Tm": 54.4}
